Measurements published in patent publication US20260242448A1.

Biological target: S protein of the SARS-CoV-2 prototype strain on pseudo-virus (SARS-CoV-2 prototype strain) (UniProt P0DTC2)
Experiment: cell-based or functional assay

Chain of LY-CoV1404 (antibody) (VH): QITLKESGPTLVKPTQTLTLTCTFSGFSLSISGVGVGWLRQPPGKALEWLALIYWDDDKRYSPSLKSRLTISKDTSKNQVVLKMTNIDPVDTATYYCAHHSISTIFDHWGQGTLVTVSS
Chain of LY-CoV1404 (antibody) (VL): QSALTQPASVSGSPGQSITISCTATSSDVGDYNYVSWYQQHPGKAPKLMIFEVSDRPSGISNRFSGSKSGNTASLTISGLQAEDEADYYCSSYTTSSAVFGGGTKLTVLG

Question: How did the Neutralization activity (IC50) against pseudo-virus turn out when LY-CoV1404 (antibody) was run?
Answer: The Neutralization activity (IC50) against pseudo-virus was 1.19 ng/mL.
